B1: Serine/threonine-protein kinase SIK1 (Homo sapiens), P57059 (parent)
chain: MVIMSEFSADPAGQGQGQQKPLRVGFYDIERTLGKGNFAVVKLARHRVTKTQVAIKIIDKTRLDSSNLEKIYREVQLMKLLNHPHIIKLYQVMETKDMLYIVTEFAKNGEMFDYLTSNGHLSENEARKKFWQILSAVEYCHDHHIVHRDLKTENLLLDGNMDIKLADFGFGNFYKSGEPLSTWCGSPPYAAPEVFEGKEYEGPQLDIWSLGVVLYVLVCGSLPFDGPNLPTLRQRVLEGRFRIPFFMSQDCESLIRRMLVVDPARRITIAQIRQHRWMRAEPCLPGPACPAFSAHSYTSNLGDYDEQALGIMQTLGVDRQRTVESLQNSSYNHFAAIYYLLLERLKEYRNAQCARPGPARQPRPRSSDLSGLEVPQEGLSTDPFRPALLCPQPQTLVQSVLQAEMDCELQSSLQWPLFFPVDASCSGVFRPRPVSPSSLLDTAISEEARQGPGLEEEQDTQESLPSSTGRRHTLAEVSTRLSPLTAPCIVVSPSTTASPAEGTSSDSCLTFSASKSPAGLSGTPATQGLLGACSPVRLASPFLGSQSATPVLQAQGGLGGAVLLPVSFQEGRRASDTSLTQGLKAFRQQLRKTTRTKGFLGLNKIKGLARQVCQAPASRASRGGLSPFHAPAQSPGLHGGAAGSREGWSLLEEVLEQQRLLQLQHHPAAAPGCSQAPQPAPAPFVIAPCDGPGAAPLPSTLLTSGLPLLPPPLLQTGASPVASAAQLLDTHLHIGTGPTALPAVPPPRLARLAPGCEPLGLLQGDCEMEDLMPCSLGTFVLVQ
B2: Serine/threonine-protein kinase SIK3 (Homo sapiens), Q9Y2K2 (parent)
chain: MAAAAASGAGGAAGAGTGGAGPAGRLLPPPAPGSPAAPAAVSPAAGQPRPPAPASRGPMPARIGYYEIDRTIGKGNFAVVKRATHLVTKAKVAIKIIDKTQLDEENLKKIFREVQIMKMLCHPHIIRLYQVMETERMIYLVTEYASGGEIFDHLVAHGRMAEKEARRKFKQIVTAVYFCHCRNIVHRDLKAENLLLDANLNIKIADFGFSNLFTPGQLLKTWCGSPPYAAPELFEGKEYDGPKVDIWSLGVVLYVLVCGALPFDGSTLQNLRARVLSGKFRIPFFMSTECEHLIRHMLVLDPNKRLSMEQICKHKWMKLGDADPNFDRLIAECQQLKEERQVDPLNEDVLLAMEDMGLDKEQTLQSLRSDAYDHYSAIYSLLCDRHKRHKTLRLGALPSMPRALAFQAPVNIQAEQAGTAMNISVPQVQLINPENQIVEPDGTLNLDSDEGEEPSPEALVRYLSMRRHTVGVADPRTEVMEDLQKLLPGFPGVNPQAPFLQVAPNVNFMHNLLPMQNLQPTGQLEYKEQSLLQPPTLQLLNGMGPLGRRASDGGANIQLHAQQLLKRPRGPSPLVTMTPAVPAVTPVDEESSDGEPDQEAVQSSTYKDSNTLHLPTERFSPVRRFSDGAASIQAFKAHLEKMGNNSSIKQLQQECEQLQKMYGGQIDERTLEKTQQQHMLYQQEQHHQILQQQIQDSICPPQPSPPLQAACENQPALLTHQLQRLRIQPSSPPPNHPNNHLFRQPSNSPPPMSSAMIQPHGAASSSQFQGLPSRSAIFQQQPENCSSPPNVALTCLGMQQPAQSQQVTIQVQEPVDMLSNMPGTAAGSSGRGISISPSAGQMQMQHRTNLMATLSYGHRPLSKQLSADSAEAHSLNVNRFSPANYDQAHLHPHLFSDQSRGSPSSYSPSTGVGFSPTQALKVPPLDQFPTFPPSAHQQPPHYTTSALQQALLSPTPPDYTRHQQVPHILQGLLSPRHSLTGHSDIRLPPTEFAQLIKRQQQQRQQQQQQQQQQEYQELFRHMNQGDAGSLAPSLGGQSMTERQALSYQNADSYHHHTSPQHLLQIRAQECVSQASSPTPPHGYAHQPALMHSESMEEDCSCEGAKDGFQDSKSSSTLTKGCHDSPLLLSTGGPGDPESLLGTVSHAQELGIHPYGHQPTAAFSKNKVPSREPVIGNCMDRSSPGQAVELPDHNGLGYPARPSVHEHHRPRALQRHHTIQNSDDAYVQLDNLPGMSLVAGKALSSARMSDAVLSQSSLMGSQQFQDGENEECGASLGGHEHPDLSDGSQHLNSSCYPSTCITDILLSYKHPEVSFSMEQAGV

Variants of: B1
Details: with 1433z_human YWHAZ

Variant	effect of a mutation on the interaction
T182A	decreasing interaction

Variants of: B2
Details: with 1433z_human YWHAZ

Variant	effect of a mutation on the interaction
T221A	decreasing interaction

Source: IntAct's records for PubMed 16306228
